Substrate in data set [1]: CC(C)=CCC/C(C)=C/CC/C(C)=C/CC/C(C)=C/COP(=O)(O)OP(=O)(O)O
Nature of the data set: GC-MS of hexane-extracted product; Michaelis-Menten fit. Type of data set: biochemical, Tripterygium wilfordii. The settings on record: pH 7.5, 30 °C, 10 min, Mg2+ 10 mM in text (20 mM in Figure 5 legend), no added K+ stated, product (E,E)-geranyllinalool.

Substrate in data set [2]: CC(C)=CCC/C(C)=C/CC/C(C)=C/CO[P@@](=O)(O)OP(=O)(O)O
The data set is described as above. It counts as biochemical, Tripterygium wilfordii. The settings on record: 200 mM K+, pH 7.5, 30 °C, 10 min, Mg2+ 10 mM in text (20 mM in Figure 5 legend), product (E)-nerolidol.

B1: TwGES1 (Tripterygium wilfordii) (protein)
chain: MDFSDSSIISLVDKIKVEMFVDMDVYSFVAPSAYDTAWLAMVPDSRSPVQPLFMDCLDWVLNNQREEGFWGDIDGHGMPAIESLTSTLACLIALKKWNVGESAIQKGLDFVRENAEMYIEEIKDCCPRRFAVIFPAMLEQASSLGLDNILPNHVKDTVHVMDIFIEHRRIVEKEELVETYHYPPLLAYLEALPPNKIDKDQIVTHLSSDGSLFQSPSATASAFMITGNKDCLAYLKAIIQRCPNGVPATYPIDEDLIRLCMVNHLQRLGLAEHFTKEIKNMLTSVHRNYSTNHRSTVKDSNLLHLYKDSLAFWLLRMNGYIVSPGSFCWFMQRGDIKDRIENNYYDDDFSSVMLNVYKATDLMFPGEEDQLEEARCFARKLLENVISTTSGNQNHLHKLIGHELKTPWLARLDHLEHKMWITQEHDSTLLWMGKFSFHRLSYDNSERLTQLAVQNYKYRQSIYRKELVELKRWSREWGLSEMGFGREKTTYCYFVVAASTSLPKHSDVRLIAAKIGILITVADDFFDEHASLDELQNLTHAIQRWDGKGLSGHSRTIFEVLDDLVREIAKKYKEQQEGIDVSDSLKNLWYETFLAWLVESQWSKNGHIPSMDEYIETGMISIASHTLLLPASCFLNPSLAYHQLKPLEYENITKLLMLITRLLNDTQSYQKEQKSGKKNFVLLYLKENPEAEIEDAIEYVGEIIEKKKKEFFEYALMDGLSELPKECRHLHLACLKVYQMLFNSSNRYDSNTELIQDIQEAFYQSPDPEIGVSSSKSSSIKSTKKPVSLPQHLSFKKQNNQTTSYYHSSFDYRGSNNIAVKWASWPKWRVDGYNKSMFVTPKFSPCFI
notes: MBP fusion (pMAL-c2X) from E. coli Transetta (DE3), amylose resin; tag cleavage not mentioned
On to B1, for which the Km (commonly the concentration of substrate that gives half-maximal velocity) in data set [1] was 2.039 µM.

B2: TwNES (Tripterygium wilfordii) (protein)
chain: MAFFGSSRSSIIPLKTISQIVTADSTNKRGTVDSNHKSAPTTPLNDRICTEHAHKVKDFKQIINIAGEDPSEGLAIIDAVQRLGVDHHFQDEIHTILQKHYTLATGTTTHGDCMITSLRFRLLRQEGYYVSADVFEGLKDEEGKFDQNLSGDIKGLMALYEASQLSMEGENILDEARDYSSRLLNECVTQLDHDQARIVEHTLTHPHHKSLARFMAKNFLRDFHGTNGWIDDLKKLAKVDFDMAQSTYQKEVVQISQWWKELGLAEELKFARDQPVKWYIWTTTCHQDPSFSELRINLTKPISFVYLIDDIFDVYGTPQEVTDFTEAVDRWDHDAIDQLPYYMKICFKALDDITNEISYKVYKQHGWNPLDSLRKSWGRLCNAFLTEAQWFASGHLPKAEEYLENGIISSGVPVVLLHLFFLLGEGVTQKSVEMIDNTPAIVSAAAAILRLWDDLGSAKDEDQDGKDGSYLACYTNENPGCSLEDAEKHVKSKICDEWKQLNKECLSQKNPFSPSFLKACLNVSRMVPLMYEYDENRRLPRLEEFLKSILIK
notes: MBP fusion (pMAL-c2X) from E. coli Transetta (DE3), amylose resin; tag cleavage not mentioned; gene synthesized
B2: the Michaelis-Menten constant (Km) in data set [2] was 12.700 µM.

Source of the values: PMC5269589, “Functional characterization of NES and GES responsible for the biosynthesis of (E)-nerolidol and (E,E)-geranyllinalool in Tripterygium wilfordii” (Scientific Reports, 2017).
